Measured values published in patent US7851592B2, “Compositions and methods for inhibiting G2 cell cycle arrest and sensitizing cells to DNA damaging agents” (CanBas Co. Ltd., priority 1999, dated 2010).

test system: histone H1 kinase activity; test: Histone H1 kinase assay on lysates of treated Jurkat cells; type: cell-based, human; details: FIG. 2B; bleomycin 10 μg/ml or hydroxyurea 100 μg/ml; 6 hr
Protocol: Histone H1 kinase assay. Ten million Jurkat cells were treated with hydroxyurea (100 μg/ml), bleomycin (10 μg/ml), or colchicine (5 μg/ml) with or without addition of TAT-S216A, TAT-S216 or TAT-Control (10 μM) for 6 hr. The cells were washed in cold PBS and lysed at 4° C. in 1 ml of buffer A (50 mM Tris pH 8, 2 mM DTT, 5 mM EDTA, 100 mM NaCl, 0.5% NP40, 20 mM Na3V04, 50 mM NaF, 4 μM Okadaic acid, 5 μg/ml aprotinin, 5 μg/ml pepstatin A and 5 μg/ml leupeptin.). Twenty microliter of p13^suc1 agarose beads (Upstate Biotechnology., Saranac, N.Y.) were added to the cleared lysates, incubated for 4 hr at 4° C., and washed five times with buffer A without 5 mM EDTA, 20 mM Na3V04, 50 mM NaF, 4 μM Okadaic acid. Histone HI kinase activity on the beads were analyzed by using Cdc2 kinase assay kit (Upstate Biotechnology) with [γ-^32P] ATP, followed by 12% SDS-PAGE electrophoresis, and autoradiographed to detect the phosphorylated Histone H1.
The cell cycle status of the cells treated with TAT-S216A or TAT-S216 upon the DNA damage-induced G2 arrest was analyzed by FACS analysis. Histone H1 kinase activities of theses cells were simultaneously monitored. […] Results are shown in FIG. 2: abrogation of DNA damage-induced G2 arrest by TAT-S216A and TAT-S216 peptides. FIG. 2A, FACS analysis of Jurkat cells treated with bleomycin and peptides. Cells were treated with bleomycin (10 μg/ml) with or without peptides (10 μM) for 20 hr. B, histone H1 kinase analysis. Cell lysates were prepared from the cells treated with the indicated reagent for 6 hr. Concentrations used were: hydroxyurea (HU), 100 μg/ml; bleomycin (Bleo), 10 μg/ml; colchicine, 5 μg/ml; TAT-S216A and TAT-S216, 10 μM. C, FACS analysis of colchicine -and peptide-treated cells. Jurkat cells were treated with colchicine (5 μg/ml) with or without peptide (10 μM) for 20 hr.

Row | Molecule | histone H1 kinase activity on treatment with drug alone
1 | NC(=O)NO [hydroxyurea, Hydroxyurea] | decreased

target: human Chk2 kinase (Homo sapiens, UniProt O96017); test: In vitro phosphorylation (kination) of membrane-immobilized peptides by human Chk2 kinase (Gst-Chk2); type: biochemical; design: key to phosphorylation signal by human Chk2 kinase (graded) / in vitro phosphorylation by human Chk2 kinase (graded signal): a “+++” indicates the peptide was relatively highly phosphorylated; a “++” indicates the peptide was relatively less phosphorylated; a “+” indicates the peptide was detectably significantly phosphorylated over negative control; no indication indicates that a peptide was not significantly phosphorylated over negative control; details: peptide on membrane; Gst-Chk2
Protocol: Exemplary peptides were directly synthesized (immobilized) on a membrane and contacted with human Chk2 kinase. Specifically, oligo-peptides with all sequences predicted by the 3-dimensional model were directly synthesized on a membrane by using an auto-spot-peptide-synthesizer, Model ASP-22 2 (ABiMED, Germany). The amount of peptide was about 0.1 micro-mol/cm^2.
The membrane was incubated with 2% Gly-Gly in PBS for 2 hours (hr) at room temperature (RT). Then, they were washed three times with 0.1% Tween-P BS™. The “kination,” or “phosphorylation,” reaction was performed with a recombinant fusion protein Gst-Chk2 at a concentration of about 5 μg in 4 ml reaction buffer, 1 mM MgCl2, 2% Gly-Gly and γ-^33P-ATP in PBS at RT for 1 hr. After the reaction, the membrane was washed 5 times with RIPA (1% SDS, 1% NP-40, 100 mM NaCl) and analyzed with a Bass 2500™ image analyzer (Fuji, Japan).
The following Table 1 is a complete list of tested peptides and results of the in vitro phosphorylation by human Chk2 kinase assay.
The following example describes studies which identified exemplary G2 checkpoint-abrogating peptides of the invention. The following peptides of the invention were synthesized directly on membranes and tested in in vitro phosphorylation (“kination” assays, as described above.
These peptides were tested in in vitro kination reactions. The oligopeptides were used as phosphorylation substrates; added kinases are involved in the cell cycle G2 checkpoint. Thus, a substance that inhibits the kination reaction can be a cell cycle 62 checkpoint abrogator. For the detection of the phosphorylation status of substrates in this screening method, isotope-labeled ATP and anti-phospho-peptides antibody can be used.

Sequence of human Chk2 kinase (O96017 whole entry): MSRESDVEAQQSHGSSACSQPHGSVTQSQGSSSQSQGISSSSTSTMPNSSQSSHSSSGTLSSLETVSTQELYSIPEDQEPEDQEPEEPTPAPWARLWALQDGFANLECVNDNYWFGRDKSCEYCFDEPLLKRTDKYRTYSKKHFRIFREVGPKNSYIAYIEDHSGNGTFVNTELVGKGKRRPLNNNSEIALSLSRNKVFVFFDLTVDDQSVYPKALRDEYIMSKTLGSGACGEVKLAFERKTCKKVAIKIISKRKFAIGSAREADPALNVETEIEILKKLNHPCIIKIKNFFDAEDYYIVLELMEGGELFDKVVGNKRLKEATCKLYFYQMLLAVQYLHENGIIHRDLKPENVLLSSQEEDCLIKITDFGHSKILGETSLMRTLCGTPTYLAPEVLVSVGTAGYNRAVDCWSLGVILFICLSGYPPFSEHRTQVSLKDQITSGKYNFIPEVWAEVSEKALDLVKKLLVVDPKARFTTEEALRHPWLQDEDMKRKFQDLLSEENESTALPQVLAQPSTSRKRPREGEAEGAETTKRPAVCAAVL

Row | Molecule | phosphorylation by human Chk2 kinase (in words)
2 | W Y T S P S Y F E N L (WYTSPSYFENL) | best phosphorylation substrates
3 | L Y R S P S Y Y E N L (LYRSPSYYENL) | best phosphorylation substrates

same assay, conditions: peptide on membrane; Gst-Chk2; γ-33P-ATP; RT 1 hr

Row | Molecule | phosphorylation signal by human Chk2 kinase (graded)
4 | LYRSPSAMPENL | +
5 | RYSLPPELSNM | +

same assay, conditions: peptide synthesized on membrane (about 0.1 micro-mol/cm^2); Gst-Chk2 about 5 μg in 4 ml reaction buffer, γ-33P-ATP, RT 1 hr; image analyzer signal graded −, +, ++, +++

Row | Molecule | in vitro phosphorylation by human Chk2 kinase (graded signal)
6 | LFTSPSYFENL | +
7 | LYSSPSYFENL | +
8 | LYRSPSNPENL | +
9 | LYTSPSFYENL | ++
10 | LYSSPSMYENL | +
11 | LYHSPSYPENL | +
12 | LYRSPSNWENL | +
13 | LYSSPSHFENL | ++
14 | LYTSPSHWENL | +
15 | LYSSPSHWENL | ++
16 | LYRSPSHFENL | +
17 | LYTSPSNFENL | +
18 | LYTSPSFFENL | ++
19 | LYSSPSYPENL | +
20 | LYTSPSHYENL | +
21 | LYSSPSQWENL | +
22 | LYRSPSYYENL | +
23 | LYSSPSFWENL | +
24 | LYRSPSHPENL | +
25 | LYSSPSFYENL | +

Row | Molecule | in vitro phosphorylation by human Chk2 kinase (graded signal)
26 | LYSSPSYWENL | +
27 | LYHSPSYWENL | +
28 | LYRSPSYWENL | +
29 | LYTSPSYPENL | ++
30 | LYSSPSMFENL | +
31 | LYSSPSFFENL | +
32 | LYTSPSMWENL | ++
33 | LYHSPSYYENL | +++
34 | LYTSPSNYENL | +
35 | LYTSPSNWENL | +
36 | LYTSPSYFENL | ++
37 | LYTSPSYYENL | +++
38 | LFTSPSYWENL | +
39 | LYTSPSHPENL | +
40 | LFTSPSYYENL | +++
41 | LYTSPSNPENL | +
42 | LYSSPSFPENL | +
43 | LYTSPSFWENL | ++
44 | RYSLPPELSNM | +
45 | LYSSPSQPENL | +

Row | Molecule | in vitro phosphorylation by human Chk2 kinase (graded signal)
46 | LYSSPSHPENL | ++
47 | LYRSPSNYENL | +
48 | LYTSPSYWENL | ++
49 | LYSSPSMWENL | +
50 | LYTSPSMYENL | ++
51 | LYRSPSHYENL | +
52 | LYTSPSMPENL | ++
53 | LYRSPSHWENL | +
54 | LYSSPSHYENL | ++
55 | LYTSPSFPENL | ++
56 | LYRSPSYFENL | +
57 | LYTSPSMFENL | ++
58 | LYSSPSMPENL | +
59 | LYRSPSMPENL | +
60 | LYHSPSYFENL | +
61 | LYSSPSYYENL | +
62 | LYTSPSHFENL | +
63 | LFTSPSYPENL | +

same assay, conditions: peptide synthesized on membrane, about 0.1 micro-mol/cm^2; Gst-Chk2 about 5 μg in 4 ml, γ-33P-ATP, RT 1 hr; image analyzer signal graded −, +, ++, +++

Row | Molecule | in vitro phosphorylation by human Chk2 kinase (graded signal)
64 | 1132 (WYRSPSYPENL) [compound 1132] | ++
65 | 1212 (WYTSPSYPENL) [compound 1212] | ++
66 | 1125 (WYRSPSMWENL) [compound 1125] | ++
67 | 1134 (WYRSPSYYENL) [compound 1134] | ++
68 | 1128 (WYRSPSFFENL) [compound 1128] | ++
69 | 1130 (WYRSPSFWENL) [compound 1130] | ++
70 | 1127 (WYRSPSFPENL) [compound 1127] | ++
71 | 1129 (WYRSPSFYENL) [compound 1129] | +++
72 | 1124 (WYRSPSMYENL) [compound 1124] | ++
